In the RNAGym collection of RNA variant scans (doi:10.7554/elife.90254):

B1: OR4K15 (parent)
chain: GUUAACGGUCAUAGGCCAUGGAAACUAGGAGCACCAUUUCGCUGCCAGUGAAGAAAUGAACAAAGAAAAUCUGGGCCAGGCAGGCAUCAAAAGAAAUAGUCUUGCGCUCAACCAGAAAGUCUGUAAUCAUUUUAAGGGUA

Variants of: B1
Test: self-cleavage, relative activity (ratio to wild type); higher = more cleavage; in vitro, sequencing; the parent is a self-cleaving ribozyme

Question: For GUUAACGGUCAUAGGCCAUGGAAACUGGGAGCACCAUUUCGCUGCCAGUGAAGAAAUGAACAAAGAAAAUCUGGGCCAGGCAGGCUUCAAAAGAAAUAGUCUUGCGCUCAACCAGAAAGUCUGUAAUCAUUUUAAGGGUA, which self-cleavage is on record?
Answer: 1.34

Question: Which self-cleavage does the source give for GUUAACGGUCAUAGGCCAAGGAAACUAGGAGCACCAUUUCGCUGCCAGUGAAGAAAUGAACAAAGAAAAUCUGGGCCAGGCAGGCAUCAAAAGAAAUAGUCUUGCGCUCAACCAGAAAGUCUGUAAUCAUUUCAAGGGUA here?
Answer: 1.73

Question: For GUUAACGGUCAUAGGCCAUGGAAACUAGGAGCACCAUUUCGCUGCCAGUGAAGAAAUGAACAAAGAAAAUCUGGGCCAGGCAGGCAUCAAGAGAAAUAGUCUUGCGCUCAACCAGAAAUUCUGUAAUCAUUUUAAGGGUA, which self-cleavage is on record?
Answer: 0.81

Question: For GUUAACGGUCAUAGGCCAUGGAAACUAGGAGCACCAUUUCGCUGCCAGUGAAGAAAUGAACAAAGAAAAUCUGUGCCAGGCAGGCAACAAAAGAAAUAGUCUUGCGCUCAACCAGAAAGUCUGUAAUCAUUUUAAGGGUA, which self-cleavage is on record?
Answer: 0.15

Question: For GUUAACGGUCAUAGGCCAAGGAAACUAGGAGCACCAUUUCGCUGCCAGUGAAGAAAUGAACAAAGAAAAUCUGGGCCAGGCAGGCAUCAAAAGAAAUAGUCUUGCGCUCAUCCAGAAAGUCUGUAAUCAUUUUAAGGGUA, which self-cleavage is on record?
Answer: 0.09

Question: Which self-cleavage does the source give for GUUAACGGUCAUAGGCCAUGGAAACUAGGAGCACCAUUCCGCUGCCAGUGAAGAAAUGAACAAAGAAAAUCUGGGCCAGGCAGGCAUCAAAAGAAAUAGUCUUGCGCUCAACCAGAAAGUCUGUAAUCAUUUUUAGGGUA here?
Answer: 1.21

Question: With GUUAACGGUCAUAGGACAUGGAAACUAGGAGCACCAUUUCGCUGCCAGUGAAGAAAUGAACAAAGAAAAUCUGGGCCAGGCAGGCAUCAAAAGAAAUAGUCUUGCGCUCAACCAGAAAGUCUGUAAUCAUUUUGAGGGUA as the variant, how does the self-cleavage read?
Answer: 0.96

Question: Which self-cleavage does the source give for GUUAACGGUCAUAGGCCAUGGAAACUAGGAGCACCAUUUCGCUGCCAAUGAAGAAAUGAACAAAGAAAAUCUGGGCCAGGCAGGCAUCAAAUGAAAUAGUCUUGCGCUCAACCAGAAAGUCUGUAAUCAUUUUAAGGGUA here?
Answer: 1.62

Question: With GUUAACGGUCUUAGGCCAUGGAAACUAGGAGCACCAUUUCGCUGCCAGUGAAGAAAUGAACAAAGAAAAUCUGGGCCAGGCAGGCAUCAAAAGAAACAGUCUUGCGCUCAACCAGAAAGUCUGUAAUCAUUUUAAGGGUA as the variant, how does the self-cleavage read?
Answer: 0.56

Question: With GUUAACGGUCAUAGGCCAUGGAAACUAGGAGCACCAUUUCGCUGCCAGUGAAGAAAUGAACAAAGAAAAACUGGGCCUGGCAGGCAUCAAAAGAAAUAGUCUUGCGCUCAACCAGAAAGUCUGUAAUCAUUUUAAGGGUA as the variant, how does the self-cleavage read?
Answer: 0.43

Question: With GUUAACGGUCAUAGGCCAUGGAAACUAGGAGCACCAUUUCGCUGCCAGUGAAGAAAUGAACAAAGAAGAUCUGGGCCAGGCCGGCAUCAAAAGAAAUAGUCUUGCGCUCAACCAGAAAGUCUGUAAUCAUUUUAAGGGUA as the variant, how does the self-cleavage read?
Answer: 0.2

Question: For GUUAACGGUCAUAGGCCAUGGAAACUAGGAGCACCAUUUCGCUGCCAGUGAAUAAAUGAACAAAGAAAAUCUGGGCCAGGCAGGCAUCAAAAGAAAUAGUCUUGCGCUCAACCAGAAAGUCCGUAAUCAUUUUAAGGGUA, which self-cleavage is on record?
Answer: 2

Question: With GUUAACGGUCAUAGGCCAUGGAAACUAGGAGCACCAUUUCGCUGCCAGUGAAGAAAUGAACAAAGAAAAUCUGGGCCAGGCAGGCUUCAAAAGAAAUAGUCUUGCGCUCAACCAGAAAGUCCGUAAUCAUUUUAAGGGUA as the variant, how does the self-cleavage read?
Answer: 1.74

Question: For GUUAGCGGUCAUAGGCCAUGGAAACUAGGAGCACCAUUUCGCUGCCAGUGAAGAAAUGAACAGAGAAAAUCUGGGCCAGGCAGGCAUCAAAAGAAAUAGUCUUGCGCUCAACCAGAAAGUCUGUAAUCAUUUUAAGGGUA, which self-cleavage is on record?
Answer: 1.21

Question: For GUUAACGGUCGUAGGCCAUGGAAACUAGGAGCACCAUUUCGCUGCCAGUGAAGAAAUGAACAAAGAAAAUCUGGGCCAGGCAGGCAUCAAAAGAAAUAGUCUUGCGCUCAACCAGAAAGUCUGUAAUCAUUUUCAGGGUA, which self-cleavage is on record?
Answer: 0.5

Question: For GUUAACGGUCAUAGGCCAUGGAAACUAGGAGAACCAUUUCGCUGCCAGUGAAGAAAUGAACAAAGAAAAUCUGGGCCAGGCAGGCACCAAAAGAAAUAGUCUUGCGCUCAACCAGAAAGUCUGUAAUCAUUUUAAGGGUA, which self-cleavage is on record?
Answer: 1.38

Question: Which self-cleavage does the source give for GUUAACGGUCAUAGGCCAUGGAAACUAGGAACACCAUUUCGCUGCCAGUGAAGAGAUGAACAAAGAAAAUCUGGGCCAGGCAGGCAUCAAAAGAAAUAGUCUUGCGCUCAACCAGAAAGUCUGUAAUCAUUUUAAGGGUA here?
Answer: 1.7

Question: For GUUAUCGGUCAUAGACCAUGGAAACUAGGAGCACCAUUUCGCUGCCAGUGAAGAAAUGAACAAAGAAAAUCUGGGCCAGGCAGGCAUCAAAAGAAAUAGUCUUGCGCUCAACCAGAAAGUCUGUAAUCAUUUUAAGGGUA, which self-cleavage is on record?
Answer: 1.04

Question: For GUUAACGGUCAUAGGCCAUGGAAACUAGGAGCACCAUUUCGCUGCCAGUGAAGAAAUGAACAAAGAAAAUCUGGGCCAGGCAGGCAUCAAAAGAAAUAGUCUGGCGCUCAACCAGAAAGUCUGUAAUCAUUUUAAGUGUA, which self-cleavage is on record?
Answer: 0.05

Question: Which self-cleavage does the source give for GUUAACGGUCAUAGGCCAUGGAAACUAGGAGCACCAUUCCGCUGCCAGUGAAGAAAUGAACAAAGAAAAUCUGGGACAGGCAGGCAUCAAAAGAAAUAGUCUUGCGCUCAACCAGAAAGUCUGUAAUCAUUUUAAGGGUA here?
Answer: 0.13

Question: For GUUAACGGUCAUAGGCCAUGGAAACUAGGAGCACCAUUUCGCUGCCAGUGAAAAAAUGAACAAAGAAAAUCUGGGCCAGGCAGGCAUCAAAAGAAAUAGUCUUGCGCUCAACCAGAAAGUCUGUAAUCACUUUAAGGGUA, which self-cleavage is on record?
Answer: 1.96

Question: With GUUAACGGUCAUAGGCCAUGGAAACUAGGAGCACCAUUUCGCUGCCAGUGGAGAAAUGAACAAAGAAAAUCUGGGCCAGGCAGGCAUCAAAAGAAAUAGUCUUGCGCUCAACCAGAAAGUCUGUAAUCAUUUUAAGGGUA as the variant, how does the self-cleavage read?
Answer: 1.36

Question: With GUUAACGGUCAUAGGCCAUGGAAACUAGGAGCACCACUUCGCUGCCAGUGAAGAAAUGAACAAAGAAAAUCUGGGCCAGGCAGGCAUCAAAAGAAAUAGUUUUGCGCUCAACCAGAAAGUCUGUAAUCAUUUUAAGGGUA as the variant, how does the self-cleavage read?
Answer: 0.78

Question: With GUUAACGGUCAUAGGCCAUGGAAACUAGGAGCACCGUUUCGCUGCCAGUGAAGAAAUGAACAAAGAAAAUCUGGGCCAGGCAGGCGUCAAAAGAAAUAGUCUUGCGCUCAACCAGAAAGUCUGUAAUCAUUUUAAGGGUA as the variant, how does the self-cleavage read?
Answer: 1.01

Question: For GCUAACGGUCAUAGGCCAUGGAAACUAGGAGCACCAUUUCGCUGCCAGUGAAGAAAUGAACAAAGAAAAUCUGGGCCAGGCAGGCAUCAAAAGAAAUAGUCUUGCGCUCAACCAGAAAGUCUGUAAUCAUUUUGAGGGUA, which self-cleavage is on record?
Answer: 1.59

Question: For GUUAACGGUCAUAGGCCAUGGAAACUAGGAGCACCAUUUCGCUGCCAGUGAAGAAAUGAACAAAGAAAAUCUGGGCCAGGCAGGCAUCAAAAGAAAUAGUCUUGCGCUCAACCAGGAAGCCUGUAAUCAUUUUAAGGGUA, which self-cleavage is on record?
Answer: 0.27

Question: With GUUAACGGUCAUAGGCCAUGGAAACUAGGAGCACCAUUUCGCUGCCAGUGAAGAAAUGAACAAAGAAAAUCAGGGCCAGGCAGGCAUCAAAAGAAAUAGUCUUGCGCUCAACCAGAAAGUCUGUAGUCAUUUUAAGGGUA as the variant, how does the self-cleavage read?
Answer: 0.16

Question: For GUUAACGGUCAUAGGCCAUGGAAACUAGGAGCACCAUUUCGCUGCCAGGGAAGAAAUGAACAAAGAAAAUCUGGGCCAGGCAGGCAUCAAAAGAAAUAGUCUUGCGCUCAACCAGAAAGUCUGUAAUCAUUUUAAGGGGA, which self-cleavage is on record?
Answer: 1.58

Question: Which self-cleavage does the source give for GUUAACGGUCAUAGGCCAUGGAAGCUAGGAGCACCAUUUCGCUGCCAGUGAAGAAAUGAACAAAGAAAAUCUGGGCCAGGCAGGCCUCAAAAGAAAUAGUCUUGCGCUCAACCAGAAAGUCUGUAAUCAUUUUAAGGGUA here?
Answer: 0.43

Question: For GUUAACGGUCAUAGGCCAUGGAAACUAGGAGCACCAUUUCGCUGCCAGUGAAGAAAUGAACAAAGAAAAUCUGGGCCAGGCAGACGUCAAAAGAAAUAGUCUUGCGCUCAACCAGAAAGUCUGUAAUCAUUUUAAGGGUA, which self-cleavage is on record?
Answer: 1.73

Question: Which self-cleavage does the source give for GUUAACGGUCAUAGGCCAUGGAAACUAGGAGCACCAUUUCGCUGCCAGUGAAGAAAUGAACAAAGAAAAUCUGGGCCAGGCAGGCAUCAAAAGAUAUAGUCUUGCGCUCAACCAGAAAGUCUGUAGUCAUUUUAAGGGUA here?
Answer: 1.55

Question: For GUUAACGGUAAUAGGCCAUGGAAACUAGGAGCACCAUAUCGCUGCCAGUGAAGAAAUGAACAAAGAAAAUCUGGGCCAGGCAGGCAUCAAAAGAAAUAGUCUUGCGCUCAACCAGAAAGUCUGUAAUCAUUUUAAGGGUA, which self-cleavage is on record?
Answer: 0.81

Question: Which self-cleavage does the source give for GUUAACGGUCAUAGGCUAUGGAAACUAGGAGCACCAUUUCGCUGCCAGUGAAGAAAUGAACAAAGAAAGUCUGGGCCAGGCAGGCAUCAAAAGAAAUAGUCUUGCGCUCAACCAGAAAGUCUGUAAUCAUUUUAAGGGUA here?
Answer: 0.62

Question: With GUUAACGGUCAUAGGCCAUGGAAACUAGGAGCACCAUUUCGCUGCCAGUGAAGAAAUGAACAAAGAAAAUCUGGGCCCGGCAGGCAUCAAAAGAAAUAGUCUUGCGCUCAACCAGAAAGUCUGUAAUCAUUUCAAGGGUA as the variant, how does the self-cleavage read?
Answer: 0.24

Question: With GUUAACGGUCAUAGGCCAUGGAAACUAGGAGCACCAUUUCGCUGCCAGUGAAGAAAUGAACAAAGAAAAUCUGGACCAGGCAGGCAUCAAAAGAAAUAGUCUUGCGCUCAACCAGAAAAUCUGUAAUCAUUUUAAGGGUA as the variant, how does the self-cleavage read?
Answer: 0.17

Question: With GUUAACGGUCAUAGGCCAUGGAAACUAGGAGCACCAUUUCGCUGCCAGUGAAGAAAUGAACAAAGAAAAUCUGGGCCAGGCAGGCAUCAGAAGAAAUAGUCUUGCGCUCAACCAGAAAGUCUAUAAUCAUUUUAAGGGUA as the variant, how does the self-cleavage read?
Answer: 0.48

Question: With GUUAACGGUCAUAGGCCAUGGAAACUUGGGGCACCAUUUCGCUGCCAGUGAAGAAAUGAACAAAGAAAAUCUGGGCCAGGCAGGCAUCAAAAGAAAUAGUCUUGCGCUCAACCAGAAAGUCUGUAAUCAUUUUAAGGGUA as the variant, how does the self-cleavage read?
Answer: 0.38

Question: Which self-cleavage does the source give for GUUAACGGUCAUGGGCCAUGGAAACUAGGAGCACCAUUUCGCUGCCAGUGAAGAAAUGAACAAAGAAAAUCUGGGCCAGGCAGGCAUCAAAAGAAAUAGUCUUGCGCUCAACCAGAAAGUCCGUAAUCAUUUUAAGGGUA here?
Answer: 0.76

Question: Which self-cleavage does the source give for GUUAACGGUCAUAGGCCAUGGAAACUAGGAGCUCCAUUUCGCUGCCAGUGAAGAAAUGAACAAAGAAAAUCUGGGCCAGGCAGGCAUCAAAAGAAAUGGUCUUGCGCUCAACCAGAAAGUCUGUAAUCAUUUUAAGGGUA here?
Answer: 1.53

Question: For GUUAACGGUCAUAGGCCAUGGAAACUAGGAGCACCAUUUCGCUGCCAGUGAAGAAAUGAACAAAGAAAAUCAGGGCCAGGCAGGCAUCAAAAGAAAUAGUCUUGCGCUCAACCAGAAAGUCUGUAAACAUUUUAAGGGUA, which self-cleavage is on record?
Answer: 0.64

Question: For GUUAACGGUCAUAGGCCAUGGAAACUUGGAGCACCAUUUCGCGGCCAGUGAAGAAAUGAACAAAGAAAAUCUGGGCCAGGCAGGCAUCAAAAGAAAUAGUCUUGCGCUCAACCAGAAAGUCUGUAAUCAUUUUAAGGGUA, which self-cleavage is on record?
Answer: 1.64
